Tests used:
Ku70-5A/Ku80 heterodimer = Ku70-5A/Ku80 heterodimer (human, UniProt P12956;P13010 1-609;1-732, T305A;S306A;T307A;S314A;T316A;Ku70:); assay: pull-down
[1] = target: Ku70/Ku80 heterodimer, wild-type (human, UniProt P12956;P13010 1-609;1-732); assay: pull-down
Sequence of Ku70/Ku80 heterodimer, wild-type (P12956 whole entry, chain 1 of 2): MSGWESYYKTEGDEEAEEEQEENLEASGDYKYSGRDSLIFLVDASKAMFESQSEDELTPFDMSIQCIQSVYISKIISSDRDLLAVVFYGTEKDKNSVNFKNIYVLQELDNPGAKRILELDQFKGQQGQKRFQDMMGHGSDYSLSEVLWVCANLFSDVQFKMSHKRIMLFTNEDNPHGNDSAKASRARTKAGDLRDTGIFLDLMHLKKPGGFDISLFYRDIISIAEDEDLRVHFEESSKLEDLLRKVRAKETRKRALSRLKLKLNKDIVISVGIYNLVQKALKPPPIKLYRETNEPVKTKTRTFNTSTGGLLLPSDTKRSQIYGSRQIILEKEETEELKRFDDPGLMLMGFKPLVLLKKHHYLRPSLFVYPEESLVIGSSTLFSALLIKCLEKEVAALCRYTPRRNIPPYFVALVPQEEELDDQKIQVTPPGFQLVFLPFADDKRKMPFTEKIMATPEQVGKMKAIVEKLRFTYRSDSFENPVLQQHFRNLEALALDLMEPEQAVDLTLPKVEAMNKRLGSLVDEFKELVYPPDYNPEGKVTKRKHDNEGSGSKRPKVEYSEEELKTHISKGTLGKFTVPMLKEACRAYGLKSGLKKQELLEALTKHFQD
Sequence of Ku70/Ku80 heterodimer, wild-type (P13010 whole entry, chain 2 of 2): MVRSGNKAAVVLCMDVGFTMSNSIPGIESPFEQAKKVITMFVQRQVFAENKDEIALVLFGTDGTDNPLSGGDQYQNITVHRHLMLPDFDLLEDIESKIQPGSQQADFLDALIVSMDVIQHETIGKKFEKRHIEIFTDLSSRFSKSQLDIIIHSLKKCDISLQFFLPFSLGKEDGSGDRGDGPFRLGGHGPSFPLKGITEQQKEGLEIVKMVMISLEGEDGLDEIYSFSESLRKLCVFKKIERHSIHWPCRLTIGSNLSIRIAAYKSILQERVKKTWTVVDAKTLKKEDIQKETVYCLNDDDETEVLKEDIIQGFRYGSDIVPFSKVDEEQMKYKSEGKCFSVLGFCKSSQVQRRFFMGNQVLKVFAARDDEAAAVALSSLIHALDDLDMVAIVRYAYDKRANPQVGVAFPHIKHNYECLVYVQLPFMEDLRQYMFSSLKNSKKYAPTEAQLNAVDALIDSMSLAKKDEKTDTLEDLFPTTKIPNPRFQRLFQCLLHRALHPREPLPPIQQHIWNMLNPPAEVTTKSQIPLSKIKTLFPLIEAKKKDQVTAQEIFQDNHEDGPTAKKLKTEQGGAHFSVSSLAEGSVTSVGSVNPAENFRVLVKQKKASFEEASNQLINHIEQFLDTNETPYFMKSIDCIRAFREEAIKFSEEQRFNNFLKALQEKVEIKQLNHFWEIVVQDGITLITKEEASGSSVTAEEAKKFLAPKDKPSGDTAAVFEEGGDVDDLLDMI

Sequence of Ku70-5A/Ku80 heterodimer (P12956 whole entry T305A/S306A/T307A/S314A/T316A, chain 1 of 2): as the sequence (P12956 whole entry, chain 1 of 2) above, with T305A, S306A, T307A, S314A, T316A counted along it
Sequence of Ku70-5A/Ku80 heterodimer (P13010 whole entry, stated change not applied, chain 2 of 2): as the sequence (P13010 whole entry, chain 2 of 2) above

B1: biotin-labeled forked 22-mer dsDNA (dsDNA)
DNA 1: CGCGCCCAGCTTTCCCAGCTAATAAACTAAAAACTCCTAAGG
DNA 2: CCTTAGGAGTTTTTAGTTTATTGGGCGCG
binding result (Ku70-5A/Ku80 heterodimer): binds | binding result [1]: binds
